Experimental data from paper PMC10011603, “TRAK adaptors regulate the recruitment and activation of dynein and kinesin in mitochondrial transport” (Nature Communications, 2023).

T1: full-length human kinesin-1 heavy chain (KIF5B-GFP-SNAPf) (human, UniProt P33176 1-963, fluorescent dye in motility assays (LD555-kinesin, Alexa488-kinesin))
T1 construct: kinesin-1 heavy chain KIF5B, human, amino acids 1-963, full length; source: baculovirus-infected SF9 cells, purified (IgG Sepharose, TEV protease); not shown: His6-ZZ, N-terminal, cleaved; GFP, C-terminal, kept; SNAPf, C-terminal, kept
T1 sequence (looked up): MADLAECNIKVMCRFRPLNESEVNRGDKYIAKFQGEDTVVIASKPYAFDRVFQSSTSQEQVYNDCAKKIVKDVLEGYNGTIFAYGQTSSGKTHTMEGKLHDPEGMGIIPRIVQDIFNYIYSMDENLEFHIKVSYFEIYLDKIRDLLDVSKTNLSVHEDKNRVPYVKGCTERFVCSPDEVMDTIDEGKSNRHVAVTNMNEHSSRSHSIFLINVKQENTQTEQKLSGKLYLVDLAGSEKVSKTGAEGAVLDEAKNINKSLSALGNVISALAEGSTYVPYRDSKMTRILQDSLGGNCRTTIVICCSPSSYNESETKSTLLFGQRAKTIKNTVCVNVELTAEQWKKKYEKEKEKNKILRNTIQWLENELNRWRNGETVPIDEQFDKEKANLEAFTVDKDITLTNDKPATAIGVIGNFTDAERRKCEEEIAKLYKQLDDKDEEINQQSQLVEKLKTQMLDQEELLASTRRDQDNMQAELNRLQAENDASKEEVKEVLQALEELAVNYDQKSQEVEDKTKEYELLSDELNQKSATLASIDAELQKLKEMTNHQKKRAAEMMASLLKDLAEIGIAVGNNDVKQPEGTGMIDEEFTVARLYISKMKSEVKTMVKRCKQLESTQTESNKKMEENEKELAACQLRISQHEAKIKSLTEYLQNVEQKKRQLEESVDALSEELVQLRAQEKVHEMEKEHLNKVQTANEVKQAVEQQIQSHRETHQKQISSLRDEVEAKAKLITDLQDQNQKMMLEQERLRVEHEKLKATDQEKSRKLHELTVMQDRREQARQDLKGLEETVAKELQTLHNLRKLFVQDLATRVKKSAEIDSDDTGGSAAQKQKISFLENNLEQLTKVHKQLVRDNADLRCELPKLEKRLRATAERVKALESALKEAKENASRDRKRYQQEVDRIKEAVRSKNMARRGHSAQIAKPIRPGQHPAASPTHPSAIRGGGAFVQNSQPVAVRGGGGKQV

B1: TRAK2^1–400 (domain or fragment, human, UniProt O60296 1-400, looked up)
chain: MSQSQNAIFTSPTGEENLMNSNHRDSESITDVCSNEDLPEVELVSLLEEQLPQYRLKVDTLFLYENQDWTQSPHQRQHASDALSPVLAEETFRYMILGTDRVEQMTKTYNDIDMVTHLLAERDRDLELAARIGQALLKRNHVLSEQNESLEEQLGQAFDQVNQLQHELCKKDELLRIVSIASEESETDSSCSTPLRFNESFSLSQGLLQLEMLQEKLKELEEENMALRSKACHIKTETVTYEEKEQQLVSDCVKELRETNAQMSRMTEELSGKSDELIRYQEELSSLLSQIVDLQHKLKEHVIEKEELKLHLQASKDAQRQLTMELHELQDRNMECLGMLHESQEEIKELRSRSGPTAHLYFSQSYGAFTGESLAAEIEGTMRKKLSLDEESSLFKQKAQ
modifications: LD555 or LD655 dye on the SNAP-tag in motility assays
notes: TRAK2, human, residues 1-400; full length printed as 1-914; also called T2^1–400; N-terminal coiled coil of TRAK2 with CC1 box and Spindly motif; source: baculovirus-infected SF9 cells, purified (IgG Sepharose, TEV protease); not shown: His6-ZZ, N-terminal, cleaved; SNAP-tag or GFP, C-terminal, kept
B2: full-length TRAK2 (TRAK2^1–914) (natural protein, human, UniProt O60296 1-914, looked up)
chain: MSQSQNAIFTSPTGEENLMNSNHRDSESITDVCSNEDLPEVELVSLLEEQLPQYRLKVDTLFLYENQDWTQSPHQRQHASDALSPVLAEETFRYMILGTDRVEQMTKTYNDIDMVTHLLAERDRDLELAARIGQALLKRNHVLSEQNESLEEQLGQAFDQVNQLQHELCKKDELLRIVSIASEESETDSSCSTPLRFNESFSLSQGLLQLEMLQEKLKELEEENMALRSKACHIKTETVTYEEKEQQLVSDCVKELRETNAQMSRMTEELSGKSDELIRYQEELSSLLSQIVDLQHKLKEHVIEKEELKLHLQASKDAQRQLTMELHELQDRNMECLGMLHESQEEIKELRSRSGPTAHLYFSQSYGAFTGESLAAEIEGTMRKKLSLDEESSLFKQKAQQKRVFDTVRIANDTRGRSISFPALLPIPGSNRSSVIMTAKPFESGLQQTEDKSLLNQGSSSEEVAGSSQKMGQPGPSGDSDLATALHRLSLRRQNYLSEKQFFAEEWQRKIQVLADQKEGVSGCVTPTESLASLCTTQSEITDLSSASCLRGFMPEKLQIVKPLEGSQTLYHWQQLAQPNLGTILDPRPGVITKGFTQLPGDAIYHISDLEEDEEEGITFQVQQPLEVEEKLSTSKPVTGIFLPPITSAGGPVTVATANPGKCLSCTNSTFTFTTCRILHPSDITQVTPSSGFPSLSCGSSGSSSSNTAVNSPALSYRLSIGESITNRRDSTTTFSSTMSLAKLLQERGISAKVYHSPISENPLQPLPKSLAIPSTPPNSPSHSPCPSPLPFEPRVHLSENFLASRPAETFLQEMYGLRPSRNPPDVGQLKMNLVDRLKRLGIARVVKNPGAQENGRCQEAEIGPQKPDSAVYLNSGSSLLGGLRRNQSLPVIMGSFAAPVCTSSPKMGVLKED
notes: TRAK2, human, residues 1-914, full length; source: HEK 293 F GNTI-/- cells, PEI transfection, purified (TRAK purification procedure); not shown: His6-ZZ, N-terminal, cleaved; SNAP-tag or GFP, C-terminal, kept
B3: TRAK1^1–532 (domain or fragment, human, UniProt Q9UPV9 1-532, looked up)
chain: MALVFQFGQPVRAQPLPGLCHGKLIRTNACDVCNSTDLPEVEIISLLEEQLPHYKLRADTIYGYDHDDWLHTPLISPDANIDLTTEQIEETLKYFLLCAERVGQMTKTYNDIDAVTRLLEEKERDLELAARIGQSLLKKNKTLTERNELLEEQVEHIREEVSQLRHELSMKDELLQFYTSAAEESEPESVCSTPLKRNESSSSVQNYFHLDSLQKKLKDLEEENVVLRSEASQLKTETITYEEKEQQLVNDCVKELRDANVQIASISEELAKKTEDAARQQEEITHLLSQIVDLQKKAKACAVENEELVQHLGAAKDAQRQLTAELRELEDKYAECMEMLHEAQEELKNLRNKTMPNTTSRRYHSLGLFPMDSLAAEIEGTMRKELQLEEAESPDITHQKRVFETVRNINQVVKQRSLTPSPMNIPGSNQSSAMNSLLSSCVSTPRSSFYGSDIGNVVLDNKTNSIILETEAADLGNDERSKKPGTPGTPGSHDLETALRRLSLRRENYLSERRFFEEEQERKLQELAEKGE
modifications: LD555 dye on the SNAP-tag in motility assays
notes: full length printed as 1-953; also called TRAK1 construct containing the coiled coils and part of the C-terminal domain; source: baculovirus-infected SF9 cells, purified (IgG Sepharose, TEV protease); not shown: His6-ZZ, N-terminal, cleaved; SNAP-tag or GFP, C-terminal, kept
B4: full-length TRAK1 (TRAK1^1–953) (natural protein, human, UniProt Q9UPV9 1-953, looked up)
chain: MALVFQFGQPVRAQPLPGLCHGKLIRTNACDVCNSTDLPEVEIISLLEEQLPHYKLRADTIYGYDHDDWLHTPLISPDANIDLTTEQIEETLKYFLLCAERVGQMTKTYNDIDAVTRLLEEKERDLELAARIGQSLLKKNKTLTERNELLEEQVEHIREEVSQLRHELSMKDELLQFYTSAAEESEPESVCSTPLKRNESSSSVQNYFHLDSLQKKLKDLEEENVVLRSEASQLKTETITYEEKEQQLVNDCVKELRDANVQIASISEELAKKTEDAARQQEEITHLLSQIVDLQKKAKACAVENEELVQHLGAAKDAQRQLTAELRELEDKYAECMEMLHEAQEELKNLRNKTMPNTTSRRYHSLGLFPMDSLAAEIEGTMRKELQLEEAESPDITHQKRVFETVRNINQVVKQRSLTPSPMNIPGSNQSSAMNSLLSSCVSTPRSSFYGSDIGNVVLDNKTNSIILETEAADLGNDERSKKPGTPGTPGSHDLETALRRLSLRRENYLSERRFFEEEQERKLQELAEKGELRSGSLTPTESIMSLGTHSRFSEFTGFSGMSFSSRSYLPEKLQIVKPLEGSATLHHWQQLAQPHLGGILDPRPGVVTKGFRTLDVDLDEVYCLNDFEEDDTGDHISLPRLATSTPVQHPETSAHHPGKCMSQTNSTFTFTTCRILHPSDELTRVTPSLNSAPTPACGSTSHLKSTPVATPCTPRRLSLAESFTNTRESTTTMSTSLGLVWLLKERGISAAVYDPQSWDRAGRGSLLHSYTPKMAVIPSTPPNSPMQTPTSSPPSFEFKCTSPPYDNFLASKPASSILREVREKNVRSSESQTDVSVSNLNLVDKVRRFGVAKVVNSGRAHVPTLTEEQGPLLCGPPGPAPALVPRGLVPEGLPLRCPTVTSAIGGLQLNSGIRRNRSFPTMVGSSMQMKAPVTLTSGILMGAKLSKQTSLR
notes: TRAK1, human, residues 1-953, full length; source: HEK 293 F GNTI-/- cells, PEI transfection, purified (TRAK purification procedure); not shown: His6-ZZ, N-terminal, cleaved; SNAP-tag or GFP, C-terminal, kept
B5: TRAK1^1–400 (domain or fragment, human, UniProt Q9UPV9 1-400, looked up)
chain: MALVFQFGQPVRAQPLPGLCHGKLIRTNACDVCNSTDLPEVEIISLLEEQLPHYKLRADTIYGYDHDDWLHTPLISPDANIDLTTEQIEETLKYFLLCAERVGQMTKTYNDIDAVTRLLEEKERDLELAARIGQSLLKKNKTLTERNELLEEQVEHIREEVSQLRHELSMKDELLQFYTSAAEESEPESVCSTPLKRNESSSSVQNYFHLDSLQKKLKDLEEENVVLRSEASQLKTETITYEEKEQQLVNDCVKELRDANVQIASISEELAKKTEDAARQQEEITHLLSQIVDLQKKAKACAVENEELVQHLGAAKDAQRQLTAELRELEDKYAECMEMLHEAQEELKNLRNKTMPNTTSRRYHSLGLFPMDSLAAEIEGTMRKELQLEEAESPDITHQK
modifications: LD555 or LD655 dye on the SNAP-tag in motility assays
notes: TRAK1, human, residues 1-400; full length printed as 1-953; also called T1^1–400; N-terminal coiled coil of TRAK1 with CC1 box and Spindly motif; source: baculovirus-infected SF9 cells, purified (IgG Sepharose, TEV protease); not shown: His6-ZZ, N-terminal, cleaved; SNAP-tag or GFP, C-terminal, kept
B6: TRAK1^1–360 (domain or fragment, human, UniProt Q9UPV9 1-360, looked up)
chain: MALVFQFGQPVRAQPLPGLCHGKLIRTNACDVCNSTDLPEVEIISLLEEQLPHYKLRADTIYGYDHDDWLHTPLISPDANIDLTTEQIEETLKYFLLCAERVGQMTKTYNDIDAVTRLLEEKERDLELAARIGQSLLKKNKTLTERNELLEEQVEHIREEVSQLRHELSMKDELLQFYTSAAEESEPESVCSTPLKRNESSSSVQNYFHLDSLQKKLKDLEEENVVLRSEASQLKTETITYEEKEQQLVNDCVKELRDANVQIASISEELAKKTEDAARQQEEITHLLSQIVDLQKKAKACAVENEELVQHLGAAKDAQRQLTAELRELEDKYAECMEMLHEAQEELKNLRNKTMPNTTS
modifications: LD555 or LD655 dye on the SNAP-tag in motility assays

Key:
[1] = molecular target: T1, full-length human kinesin-1 heavy chain …; assay: single-molecule TIRF colocalisation on microtubules; two-colour imaging of labeled kinesin and labeled TRAK constructs on surface-immobilized MTs, 0-50 nM MAP7, 1 mM Mg·ATP; also with 2 mM Ca2+; details: both partners purified
[2] = molecular target: T1, full-length human kinesin-1 heavy chain …; assay: single-molecule TIRF colocalisation on microtubules; three-colour imaging of Alexa488-KIF5B, LD555-TRAK1 1-532 (or full-length TRAK1) and LD655-Miro1 1-592; 10 nM MAP7; 0, 0.1 and 2 mM Ca2+; details: both partners purified
[3] = molecular target: T2, Miro1^1–592 (Miro1^1–592-SNAP-psc-StrepII) (human, UniProt Q8IXI2 1-592, LD655 dye on the SNAP tag in motility assays); assay: as above; details: both partners purified
T2 construct: mitochondrial Rho GTPase 1 (Miro1), human, residues 1-592, lacks the transmembrane domain; A PreScission site (psc) stands between SNAP and StrepII; no cleavage is told; also called Miro1^1–592-StrepII; Miro1^1–592-SNAPf-StrepII; source: purified (Streptactin Sepharose, eluted with desthiobiotin); not shown: SNAP, C-terminal, kept; StrepII, C-terminal, kept

[4] = molecular target: T1, full-length human kinesin-1 heavy chain …; assay: cell-based or functional assay

T2 sequence (Q8IXI2 1-592): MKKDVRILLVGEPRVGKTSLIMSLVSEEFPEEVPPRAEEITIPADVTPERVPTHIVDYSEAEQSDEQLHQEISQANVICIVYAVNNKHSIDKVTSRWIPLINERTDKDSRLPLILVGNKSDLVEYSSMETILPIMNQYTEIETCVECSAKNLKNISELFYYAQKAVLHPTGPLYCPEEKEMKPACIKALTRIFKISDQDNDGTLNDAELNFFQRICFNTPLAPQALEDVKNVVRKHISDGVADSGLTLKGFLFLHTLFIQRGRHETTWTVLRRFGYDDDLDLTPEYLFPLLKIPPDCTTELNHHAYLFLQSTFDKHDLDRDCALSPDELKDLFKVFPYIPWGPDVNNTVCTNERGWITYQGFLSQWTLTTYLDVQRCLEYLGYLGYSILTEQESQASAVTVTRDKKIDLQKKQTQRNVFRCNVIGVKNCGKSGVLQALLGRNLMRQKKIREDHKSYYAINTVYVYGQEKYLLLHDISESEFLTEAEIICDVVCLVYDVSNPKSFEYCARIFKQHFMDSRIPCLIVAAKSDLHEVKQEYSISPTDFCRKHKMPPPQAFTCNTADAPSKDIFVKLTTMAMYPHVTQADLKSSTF

Binder | binding result [1] | also measured
B1 | binds | 
B2 | binds | 
B3 |  | binding result [2]: binds; binding result [3]: binds
B4 | binds | 
B5 | binds | 
B6 |  | kinesin landing rate on MTs in the presence of MAP7, 5-20 nM TRAK1 1-360 against no TRAK [4]: 5 fold
